Measurements: the nanobody polyreactivity screen of Harvey et al. (2022)

Assay: yeast display, Sf9 membrane polyspecificity reagent, FACS + sequencing; frameworks hold sequencing errors
Outline: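 Galactose induction of a Saccharomyces cerevisiae BJ5465 synthetic nanobody display library ran 36–48 hours. The cells were then stained for 1 hour at 4 °C with 10% biotinylated, detergent-solubilized Sf9 membrane reagent, pulled down on streptavidin microbeads and FACS-sorted into low and high (top ~1%) gates on expression and reagent-binding fluorescence. Labels for polyreactivity follow the gate of origin.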

Sequence | polyreactivity (PSR sort gate)
QVQLVESGGGFFQAGGSLRLSCAASGSTFVYNAMGWYRQAPGKERELVAAISRNGGRTYYADSVKGRFTISRDNAKNTVYFQMNSLKPEDTAVYYCAADYRVQLRKEYDYWGQGTQVTVSS | high polyreactivity
QVQLVESGGGFVQAGGSLGLSCAASGSIFFVYAMGWYRQAPGKERELVADSTNGGDRNYADSVKGRFTISREHAKNTVYLQMHSLKPEDTAVYDCNARYYGYRSWLEAYNRGDYWGQATQVTVSS | high polyreactivity
QVQLVESGGGFVQAGGSLRFSCAASGRIFPGYAMGWYRQAPGKERELVAAISASGGSTYDADSVKGRFTISRDNAKNPVYLQMNSLKPEDPAVYYCNAVYRLIRFDYWGQGTQVTVSS | high polyreactivity
QVQLVESGGGFVQAGGSLRISCAASGSTIGGNGKGWYRQAPGKEREIVATITWPSGSTYYADSVKGRFTISRDNAKNTVYLQMKSLKPEDTAVYYCAKNTSSRRNPWYYYWGQGTQVTVSS | high polyreactivity
QVQLVESGGGFVQAGGSLRLSCAASGFIFNRNAMGWYRQAPGKERELVAAISRSGGRTYYADSVKGRFTISRDTAKNTDYFQMNSLKPEDTAVYSCATEGYDGEFDYWGQGTQVTVSS | high polyreactivity
QVQLVESGGGFVQAGGSLRLSCAASGFTFTSYAMGWYRQAPGKEREFVAAIRRSGSGTNYADSVKGRFTISRDNAKNTVYLQLNSLKPEDTAVYYCAAEQWGWYWYDYWGQGTQVTVSS | high polyreactivity
QVQLVESGGGFVQAGGSLRLSCAASGLSFNFNAMGWYRQAPGKERELVAAIDSGGDTNYADSVKGRFSISRDNEKNTVYLQMNSLKPEDTAVYYCNTDRYPYAFEYWGQGTQVTVSS | low polyreactivity
QVQLVESGGGFVQAGGSLRLSCAASGLTFWPYVMGWYRQAPGKERELVAAIDDTGITYYADSVKGRFTISRDNAKNTVYLQMNSLKPEDTAVYYCATDWDYYFPWIYPSDAGPEDGYWGQGTQVTVSS | low polyreactivity
QVQLVESGGGFVQAGGSLRLSCAASGRIFKQYGIGWYRQAPGKERELVAAIRSGDSTNYADSVKGRFTISRDNAKNTVYLQMNSLKPEDTAVYYCARDRPGDYAGYDYWGQGTQVTVSS | low polyreactivity
QVQLVESGGGFVQAGGSLRLSCAASGRIFPEYSRGWYRQAPGKERELVASINSDGSTNYADSVKGRFTISRDNAKNTVYLQMNSLKPEDTAVYYCATEGSGTGIFISKFDYWGQGTQVTVSS | low polyreactivity
QVQLVESGGGFVQAGGSLRLSCAASGRIFTRYAMGWYRQAPGKERELVASISWSGDGTYYADSVKGRFTISRDNAKNTVYLQMNSLKPDDTAVYYCAARYGTVVPGQVRWYGYGYWGQGTQVTVSS | high polyreactivity
QVQLVESGGGFVQAGGSLRLSCAASGRNFFSNAMGWYRQAPGNEWELVASITSRGGTTYYADSVKGRFTISSYNAKNPVYLQMNSVKPEDTAVYYCAALRRSYFGYWGQVTQVTVSS | high polyreactivity
QVQLVESGGGFVQAGGSLRLSCAASGRTFQFYAMGWYRQAPGKERELVAAITYSGDSTYYADSVKGRFTISRDNAKNTVYLQMNSLKPEDTAVYYCAAGVWFYWYEYDYWGQGTQVTVSS | high polyreactivity
QVQLVESGGGFVQAGGSLRLSCAASGSIFDYYTMGWYRQAPGKEREFVAGISDSGGSTNYADSVKGRFTISRDNAKNTVYLQMNSLKPEDTAVYYCNAEYVGWFYKYDYWGQGTQVTVSS | high polyreactivity
QVQLVESGGGFVQAGGSLRLSCAASGSIFGSYAMGWYRQAAGKERELVPDISSGGSTNYADSVKGRFTISRDNAKYTVYLQMNSLKPEDTAVYYCNADDPAGYLYWWGSWLESDYWGQGTQVTVSS | low polyreactivity
QVQLVESGGGFVQAGGSLRLSCAASGSIFRFYAMGWYRQAPGKERELVASITSGGSTNYADSVKGRFTISRDNAKNTVYLQMNSLKPEDTAVYYCAVRLKGYRRRDYWGQGTQVTVSS | high polyreactivity
QVQLVESGGGFVQAGGSLRLSCAASGSIFVKYAMGWYRQAPGTERELVAAISRSGDSTYYADSVKGRFTLSRDNAKNTVYLQMNSLNPEDTAAYSCAAYSGYGGVSMYYWGQGTQVTVSS | low polyreactivity
QVQLVESGGGFVQAGGSLRLSCAASGSIFWTYAMGWYRPAPGNERELVATIPYSDGNTYYADSVKGRFTISRDHAKNTVYLQMNSLKPEDTAVYYGAADTVPDWQEYDYWGQGTQVTVSS | low polyreactivity
QVQLVESGGGFVQAGGSLRLSCAASGSTFAYYTMGWYRQAPGKERELVAASYGAGGSTYYADSVKGRFTISRDNAKNTVYLQRNSLIPEDTAVYYCNVVVSVHISVSQYDYWGQGTQVTVSS | high polyreactivity
QVQLVESGGGFVQAGGSLRLSCAASGSTFSVYAMGWYRQAPGKERELVATIRRGGSTYADSVKGRFTISRDNAKNTVYLQMNSLKPEDTAVYDCAADAYVSSQPMDYWGQGTQVTVSS | high polyreactivity
QVQLVESGGGFVQAGGSLRLSCAGSGSTFTSYAMGWYRQAPGKERELVASIRSTSGRTYYADSVKGRFTISRDNAKNTVYLQMNSQKPQDTAVYYCAAATYGTWWTYADNPYDYWGQGTQGTVSS | high polyreactivity
QVQLVESGGGFVQAGGSLRLSCPPSGRIIQAYAMAWYRQSPGKERELVAAISRSGGGTYYADSVKVRFTISRDNAKNTVYFLMNSLKPEDTAVSYCNAYYYYYTARWTQVNYWGQGTQVTVSS | high polyreactivity

Sequence | polyreactivity (PSR sort gate)
QVQLVESGGGFVQAGGSLRLSFAASGFTFGRYAMGWYIQAPGKERELVAAISWSDGSTYYADSVKGRFTISRDNAKNTVYLQMNSLKPQDTAVYYCAARYGGGISQAKYYYWGQGTQVTVSS | high polyreactivity
QVQLVESGGGFVQARGSLRLSCAACGRTYFPNAMGWYRQAPGKERELVAAITTSGGITYYADSVKGRFTISRDNAKNTVYLQMNSLKPEDTAVYYCATEWRTTGYRYYYWGQGTQVTVSS | high polyreactivity
QVQLVESGGGIDQAGGSLRLSCAASAFTLINYAMAWYRQAPGKERELVAAISQSGGSTYYADSVKGRFTISSDNAKNTVYLQMNSLKPEDTAVYYCNARRRGWGWTIGYVWRDDYWGQGTQVTVSS | high polyreactivity
QVQLVESGGGIFQAGGSLRLSCAASGRIYNYYAMGWTRQAPGQEREFVAAITRSGGRPYYADSVKGRFTISRDKGKNTVYLLMNSLKPEDTAVYYFAAPFGTYAYDYWGQGTLVTVSS | high polyreactivity
QVQLVESGGGIFQAGGSLRLSCSASGFTLQGYAMVWSRQAPGKERELVAAISWSGGSTYYADSVKGRFTISRDNAKNTVYLQMNSLKPEDTAVYYCAAETYFAEYWGQGTQVTVSS | high polyreactivity
QVQLVESGGGILQAGGSLRLSCAASGFISSVNAMGWYRQATGKERELVAAISDSATSTYYADSVKGRFTISRDNAKNTVYLQMNSLKPVDTALYYCAAYSHYVGYEYWGQGTQVTVSS | high polyreactivity
QVQLVESGGGILQAGGSLRLSCAASGITFVVYAMGCYRQAPGKERELVDSITYSGGSTYYADSVKGRFTISRDNAKNTVYLQMISLKPEDTAFYYCNADGYSIYYLPYSDYDAYDYWGQGTQVTVSS | low polyreactivity
QVQLVESGGGIVEAGVSLRLRGAASGGSFKSKAMVWYRQAPGNEREFVAAISSSGGSTYYADSVKGRFTISRDNAKNTVYLLMNILKPEDTAVYYCAADDYGYPYLSYDYWGQGTQVTVSS | high polyreactivity
QVQLVESGGGIVQACGSLRLSCAASGFTFYVYAMGWYRKAPGKEREFVAAISKSGGRTYYADSVMGRFTISRDNAKNTVYLQMNSLKPEDTAVYYCGRYNRYQIIYPGFDYWGQGTQVTVSS | high polyreactivity
QVQLVESGGGIVQAGGRLRLSCAASGNTFQDYAMGWYRQAPGKERELVAAINSGGSTNYADSVKGRFTISRDNAKNTVYLQMNSLKPEDTAVYYCAAEPGEGFDYWGQGTQVTVSS | low polyreactivity
QVQLVESGGGIVQAGGSLRISCAASGYNFRYNAMGWYRQAPGKERELVATITRGGSTNYPDSVKGRFTISRDNAKNTVYLQMNSMKPEDTAVYYCKKEAAPLGFVPSYYGRDYWGQGTQVTVSS | low polyreactivity
QVQLVESGGGIVQAGGSLRLRCAASGFTFERYSMGWYRQAPGKERELVATITRRSGRTSYADSVKGRFTISRDNATNTVYLQMNRLKPEDTAVYYCAVDDAYPDRYDYWGQGTQVTVSS | high polyreactivity
QVQLVESGGGIVQAGGSLRLRCAASGSTFNKYAMGWYRQAPGKERELVAAISGGGRTNYADSVKGRFTISRDNAKNTVYLQMNSLKPEDTAVYSCARPSPHKGYDYWGQGTQVTVSS | high polyreactivity
QVQLVESGGGIVQAGGSLRLRCAASGSTFYLNVMGWYRQAPGQERELVAAISSGDGSTYYADSVKGRFTISRDNAKNTVYLQMNSLKPEDTAVYYCAAEPDTEVDYDYWGQGTQVTVSS | low polyreactivity
QVQLVESGGGIVQAGGSLRLSCAASAIIFLDNPMGWSRQAPGKERELVADITSSGGSTYYADSVKGRFTISRDNAKNTVSLQMNSLKPEDTAVYYCAKYVYGKFDGVRFSYDYWGQGTQVTVSS | low polyreactivity
QVQLVESGGGIVQAGGSLRLSCAASGFTFARNAMGWSRQAPGNEWELVAAISYRGGSTYYADSVKGRFTISRDNAKNTLYLQMNSLKPQDTAVYYCAAEVVWYVYRRYYYWGQGTQVTVSS | high polyreactivity
QVQLVESGGGIVQAGGSLRLSCAASGFTFRGNAMGWYRQAPGKERELVAVINASGDSTYYADSVKGRFTISRDNAKNTVYLQMNSLKPEDTAVYYCARAYTRRWRYDYWGQGTQVTVSS | high polyreactivity
QVQLVESGGGIVQAGGSLRLSCAASGGIFFPNAMGWYRQAPGKERELVAAISWSAGSTYYADSVKVRFTISRDNAKNTVYLKKISLIPEDTAVYYCAAAGSNYTVWYGYYYWGQGTQVTVSS | low polyreactivity
QVQLVESGGGIVQAGGSLRLSCAASGIIFYGYAMGWYRQAPGKERELVAVITSGGSTNYADSVKGRFTISRDNAKNTVYLQMNSLKPEDTAVYYCNAGYVSPDYDSWGQGTQVTVSS | high polyreactivity
QVQLVESGGGIVQAGGSLRLSCAASGITFPNYAMGWYRQAPGKERELVAAISSSGGSTYYADSVKGRFTISRDNPKNTVYLQMNSLKPEDTAVYYCATAINVYPRLDYGYWGQGTQVTVSS | low polyreactivity
QVQLVESGGGIVQAGGSLRLSCAASGLIFSVNAMGWYRQAPGKERELVASISVSGGSTYYADSVKGRFTISRDNAKNTVYLQMNSLKPEDTAVYYCNTVPLAGEYSTDLRYDYWGQGTQVTVSS | low polyreactivity
